Laboratory results published in the Human Domainome abundance scans (Beltran et al. 2025).
± gives the uncertainty stated by the source.

B1: POU domain, class 3, transcription factor 3, residues 408 to 463; numbered along this chain, P20264 (parent)
chain: KKRTSIEVSVKGALESHFLKCPKPSAQEITNLADSLQLEKEVVRVWFCNRRQKEKR

Variants of: B1
Test: abundance fitness (aPCA) (normalised: wild type 0, dead -1); higher = more abundant; growth selection in yeast, the domain comes from the species named
Conditions: Homo sapiens

Variant	abundance fitness
KKRTSIEVSVKGALESHFLKCPKPSAQEITNLADSLQLEKEVVRVWFCNRRRKEKR [Q52R]	-0.138 ± 0.069
KKRTSIEVSVKGALESHFLKCPKPSAQEITNLADSLQLEKEVVRVWFCNRRSKEKR [Q52S]	0.014 ± 0.09
KKRTSIEVSVKGALESHFLKCPKPSAQEITNLADSLQLEKEVVRVWFCNRRTKEKR [Q52T]	-0.227 ± 0.13
KKRTSIEVSVKGALESHFLKCPKPSAQEITNLADSLQLEKEVVRVWFCNRRVKEKR [Q52V]	-0.112 ± 0.083
KKRTSIEVSVKGALESHFLKCPKPSAQEITNLADSLQLEKEVVRVWFCNRRWKEKR [Q52W]	-0.185 ± 0.1
KKRTSIEVSVKGALESHFLKCPKPSAQEITNLADSLQLEKEVVRVWFCNRRYKEKR [Q52Y]	-0.257 ± 0.14
KKRTSIEVSVKGALESHFLKCPKPSAQEITNLADSLQLEKEVVRVWFCNRRQAEKR [K53A]	0.076 ± 0.1
KKRTSIEVSVKGALESHFLKCPKPSAQEITNLADSLQLEKEVVRVWFCNRRQCEKR [K53C]	-0.152 ± 0.11
KKRTSIEVSVKGALESHFLKCPKPSAQEITNLADSLQLEKEVVRVWFCNRRQDEKR [K53D]	0.196 ± 0.22
KKRTSIEVSVKGALESHFLKCPKPSAQEITNLADSLQLEKEVVRVWFCNRRQEEKR [K53E]	-0.013 ± 0.12
KKRTSIEVSVKGALESHFLKCPKPSAQEITNLADSLQLEKEVVRVWFCNRRQFEKR [K53F]	-0.156 ± 0.15
KKRTSIEVSVKGALESHFLKCPKPSAQEITNLADSLQLEKEVVRVWFCNRRQGEKR [K53G]	-0.212 ± 0.072
KKRTSIEVSVKGALESHFLKCPKPSAQEITNLADSLQLEKEVVRVWFCNRRQHEKR [K53H]	-0.194 ± 0.14
KKRTSIEVSVKGALESHFLKCPKPSAQEITNLADSLQLEKEVVRVWFCNRRQIEKR [K53I]	-0.121 ± 0.13
KKRTSIEVSVKGALESHFLKCPKPSAQEITNLADSLQLEKEVVRVWFCNRRQLEKR [K53L]	0.032 ± 0.08
KKRTSIEVSVKGALESHFLKCPKPSAQEITNLADSLQLEKEVVRVWFCNRRQMEKR [K53M]	-0.167 ± 0.11
KKRTSIEVSVKGALESHFLKCPKPSAQEITNLADSLQLEKEVVRVWFCNRRQNEKR [K53N]	-0.248 ± 0.24
KKRTSIEVSVKGALESHFLKCPKPSAQEITNLADSLQLEKEVVRVWFCNRRQPEKR [K53P]	-0.6 ± 0.13
KKRTSIEVSVKGALESHFLKCPKPSAQEITNLADSLQLEKEVVRVWFCNRRQQEKR [K53Q]	-0.041 ± 0.1
KKRTSIEVSVKGALESHFLKCPKPSAQEITNLADSLQLEKEVVRVWFCNRRQREKR [K53R]	-0.044 ± 0.064
KKRTSIEVSVKGALESHFLKCPKPSAQEITNLADSLQLEKEVVRVWFCNRRQSEKR [K53S]	0.068 ± 0.082
KKRTSIEVSVKGALESHFLKCPKPSAQEITNLADSLQLEKEVVRVWFCNRRQTEKR [K53T]	-0.067 ± 0.12
KKRTSIEVSVKGALESHFLKCPKPSAQEITNLADSLQLEKEVVRVWFCNRRQVEKR [K53V]	-0.03 ± 0.087
KKRTSIEVSVKGALESHFLKCPKPSAQEITNLADSLQLEKEVVRVWFCNRRQYEKR [K53Y]	-0.288 ± 0.18

Variant	abundance fitness
KKRTSIEVSVKGALESHFLKCPKPSAQEITNLADSLQLEKEVVRVWFCNRRQKAKR [E54A]	-0.185 ± 0.074
KKRTSIEVSVKGALESHFLKCPKPSAQEITNLADSLQLEKEVVRVWFCNRRQKCKR [E54C]	-0.366 ± 0.14
KKRTSIEVSVKGALESHFLKCPKPSAQEITNLADSLQLEKEVVRVWFCNRRQKDKR [E54D]	0.058 ± 0.11
KKRTSIEVSVKGALESHFLKCPKPSAQEITNLADSLQLEKEVVRVWFCNRRQKFKR [E54F]	-0.598 ± 0.14
KKRTSIEVSVKGALESHFLKCPKPSAQEITNLADSLQLEKEVVRVWFCNRRQKGKR [E54G]	-0.234 ± 0.079
KKRTSIEVSVKGALESHFLKCPKPSAQEITNLADSLQLEKEVVRVWFCNRRQKHKR [E54H]	-0.432 ± 0.18
KKRTSIEVSVKGALESHFLKCPKPSAQEITNLADSLQLEKEVVRVWFCNRRQKIKR [E54I]	-0.748 ± 0.18
KKRTSIEVSVKGALESHFLKCPKPSAQEITNLADSLQLEKEVVRVWFCNRRQKKKR [E54K]	-0.658 ± 0.15
KKRTSIEVSVKGALESHFLKCPKPSAQEITNLADSLQLEKEVVRVWFCNRRQKLKR [E54L]	-0.365 ± 0.08
KKRTSIEVSVKGALESHFLKCPKPSAQEITNLADSLQLEKEVVRVWFCNRRQKMKR [E54M]	-0.148 ± 0.15
KKRTSIEVSVKGALESHFLKCPKPSAQEITNLADSLQLEKEVVRVWFCNRRQKNKR [E54N]	-0.474 ± 0.2
KKRTSIEVSVKGALESHFLKCPKPSAQEITNLADSLQLEKEVVRVWFCNRRQKPKR [E54P]	-0.543 ± 0.15
KKRTSIEVSVKGALESHFLKCPKPSAQEITNLADSLQLEKEVVRVWFCNRRQKQKR [E54Q]	-0.241 ± 0.12
KKRTSIEVSVKGALESHFLKCPKPSAQEITNLADSLQLEKEVVRVWFCNRRQKRKR [E54R]	-0.485 ± 0.078
KKRTSIEVSVKGALESHFLKCPKPSAQEITNLADSLQLEKEVVRVWFCNRRQKSKR [E54S]	-0.365 ± 0.081
KKRTSIEVSVKGALESHFLKCPKPSAQEITNLADSLQLEKEVVRVWFCNRRQKTKR [E54T]	-0.281 ± 0.11
KKRTSIEVSVKGALESHFLKCPKPSAQEITNLADSLQLEKEVVRVWFCNRRQKVKR [E54V]	-0.252 ± 0.075
KKRTSIEVSVKGALESHFLKCPKPSAQEITNLADSLQLEKEVVRVWFCNRRQKEAR [K55A]	-0.038 ± 0.098
KKRTSIEVSVKGALESHFLKCPKPSAQEITNLADSLQLEKEVVRVWFCNRRQKECR [K55C]	-0.14 ± 0.13
KKRTSIEVSVKGALESHFLKCPKPSAQEITNLADSLQLEKEVVRVWFCNRRQKEDR [K55D]	-0.079 ± 0.12
KKRTSIEVSVKGALESHFLKCPKPSAQEITNLADSLQLEKEVVRVWFCNRRQKEER [K55E]	0.024 ± 0.11
KKRTSIEVSVKGALESHFLKCPKPSAQEITNLADSLQLEKEVVRVWFCNRRQKEFR [K55F]	-0.312 ± 0.17
KKRTSIEVSVKGALESHFLKCPKPSAQEITNLADSLQLEKEVVRVWFCNRRQKEGR [K55G]	0.053 ± 0.074
KKRTSIEVSVKGALESHFLKCPKPSAQEITNLADSLQLEKEVVRVWFCNRRQKEHR [K55H]	-0.122 ± 0.19

Variant	abundance fitness
KKRTSIEVSVKGALESHFLKCPKPSAQEITNLADSLQLEKEVVRVWFCNRRQKEIR [K55I]	-0.234 ± 0.15
KKRTSIEVSVKGALESHFLKCPKPSAQEITNLADSLQLEKEVVRVWFCNRRQKELR [K55L]	-0.006 ± 0.087
KKRTSIEVSVKGALESHFLKCPKPSAQEITNLADSLQLEKEVVRVWFCNRRQKEMR [K55M]	-0.096 ± 0.1
KKRTSIEVSVKGALESHFLKCPKPSAQEITNLADSLQLEKEVVRVWFCNRRQKENR [K55N]	0.021 ± 0.14
KKRTSIEVSVKGALESHFLKCPKPSAQEITNLADSLQLEKEVVRVWFCNRRQKEPR [K55P]	-0.265 ± 0.16
KKRTSIEVSVKGALESHFLKCPKPSAQEITNLADSLQLEKEVVRVWFCNRRQKEQR [K55Q]	-0.132 ± 0.16
KKRTSIEVSVKGALESHFLKCPKPSAQEITNLADSLQLEKEVVRVWFCNRRQKERR [K55R]	-0.089 ± 0.075
KKRTSIEVSVKGALESHFLKCPKPSAQEITNLADSLQLEKEVVRVWFCNRRQKESR [K55S]	-0.011 ± 0.098
KKRTSIEVSVKGALESHFLKCPKPSAQEITNLADSLQLEKEVVRVWFCNRRQKETR [K55T]	-0.095 ± 0.099
KKRTSIEVSVKGALESHFLKCPKPSAQEITNLADSLQLEKEVVRVWFCNRRQKEVR [K55V]	-0.031 ± 0.081
KKRTSIEVSVKGALESHFLKCPKPSAQEITNLADSLQLEKEVVRVWFCNRRQKEWR [K55W]	-0.129 ± 0.12
KKRTSIEVSVKGALESHFLKCPKPSAQEITNLADSLQLEKEVVRVWFCNRRQKEKA [R56A]	-0.046 ± 0.12
KKRTSIEVSVKGALESHFLKCPKPSAQEITNLADSLQLEKEVVRVWFCNRRQKEKC [R56C]	-0.435 ± 0.25
KKRTSIEVSVKGALESHFLKCPKPSAQEITNLADSLQLEKEVVRVWFCNRRQKEKD [R56D]	-0.247 ± 0.26
KKRTSIEVSVKGALESHFLKCPKPSAQEITNLADSLQLEKEVVRVWFCNRRQKEKE [R56E]	0.093 ± 0.17
KKRTSIEVSVKGALESHFLKCPKPSAQEITNLADSLQLEKEVVRVWFCNRRQKEKG [R56G]	-0.068 ± 0.086
KKRTSIEVSVKGALESHFLKCPKPSAQEITNLADSLQLEKEVVRVWFCNRRQKEKH [R56H]	-0.277 ± 0.41
KKRTSIEVSVKGALESHFLKCPKPSAQEITNLADSLQLEKEVVRVWFCNRRQKEKM [R56M]	0.002 ± 0.31
KKRTSIEVSVKGALESHFLKCPKPSAQEITNLADSLQLEKEVVRVWFCNRRQKEKN [R56N]	-0.143 ± 0.45
KKRTSIEVSVKGALESHFLKCPKPSAQEITNLADSLQLEKEVVRVWFCNRRQKEKP [R56P]	-0.226 ± 0.29
KKRTSIEVSVKGALESHFLKCPKPSAQEITNLADSLQLEKEVVRVWFCNRRQKEKS [R56S]	-0.151 ± 0.27
KKRTSIEVSVKGALESHFLKCPKPSAQEITNLADSLQLEKEVVRVWFCNRRQKEKT [R56T]	-0.05 ± 0.2
KKRTSIEVSVKGALESHFLKCPKPSAQEITNLADSLQLEKEVVRVWFCNRRQKEKV [R56V]	-0.039 ± 0.081
KKRTSIEVSVKGALESHFLKCPKPSAQEITNLADSLQLEKEVVRVWFCNRRQKEKW [R56W]	-0.272 ± 0.13
